From paper PMC9473479
Values joined by “and” are separate entries in the source; they are usually repeats but may differ in a detail not shown here. Equal values may be shown once.

Columns and labels:
[1] = target: S40-H StrepII-tagged at its C-terminus (murine SPD scaffold carrying EsxH in the collagen-like region, CRD replaced by the murine CD40L 115-260 ectodomain) (Mus musculus | Mycobacterium tuberculosis | murine) (UniProt P27548); experiment: non-reducing SDS-PAGE and Western blot
[2] = target: S40-H StrepII-tagged at its C-terminus (murine SPD scaffold carrying EsxH in the collagen-like region, CRD replaced by the murine CD40L 115-260 ectodomain) (Mus musculus | Mycobacterium tuberculosis | murine) (UniProt P27548); experiment: SEC; 50x-concentrated supernatant of LV::S40-H-StrepII-transduced HEK293T cells on Superose 6 HR 10/30, 50 mM phosphate buffer pH 7.5, 150 mM NaCl; calibrated with standard proteins; fractions analysed by Western blot in reducing conditions

S40-H StrepII-tagged at its C-terminus (murine SPD scaffold carrying EsxH in the collagen-like region, CRD replaced by the murine CD40L 115-260 ectodomain) (from UniProt P27548 115-260)
stoichiometry N [1]: 2 and 4 and 3
stoichiometry N [2]: 2 and 3 and 4
